According to the supplement of paper PMC10126150:
± gives the standard deviation of the averaged measurements.
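Also: ATP exposure 15 min at 22 °C before imaging.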

The sequences below were run on ATP (assay: switch fluorescence ratio, 500 uM ATP over buffer (Cy3 cluster intensity, sum of 5 cycles each) (fold (ratio)); higher = stronger signal-on switching upon ATP binding; sequences stand for … in TCGTCGGCAGCGTCAGATGTGTATAAGAGACAGTTTTTTTTTTTTTTTTTTTTTTTTT…TC). Conditions: aptamer strand: ATP DNA aptamer (quencher-CACCTGGGGGAGTATTGCGGAGGAAGG + anchor), 100 nM annealed; ATP concentration: 500 uM.
Summary of the method: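 Clusters carrying Cy3-labelled switching strands on a modified Illumina MiSeq flow-cell were annealed to 100 nM quencher-labelled ATP aptamer and imaged in selection buffer. They were imaged again after 15 min with 500 uM ATP at 22 °C, over five buffer/ATP cycles with NaOH stripping and re-annealing in between. For each cluster, the fluorescence ratio is the summed Cy3 intensity of the target cycles divided by that of the buffer cycles, averaged per switch-domain sequence. Clusters outside 100-1000 RFU were left out.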
Sequence AGTCCAAGGC has a switch fluorescence ratio of 1.02 ± 0.065. Work on TGTTAAAATC yielded a switch fluorescence ratio of 0.984 ± 0.058. In the case of ATTTTTTTAT, the switch fluorescence ratio is reported as 0.995 ± 0.017. In the case of GAAGGGCCTG, the switch fluorescence ratio is reported as 1.05 ± 0.056. Sequence CAAAAGGTTA has a switch fluorescence ratio of 0.996 ± 0.011. ATTGGGGATG gave a switch fluorescence ratio of 0.9819 ± 0.0097. Work on CAGCGGGGGC yielded a switch fluorescence ratio of 1.01 ± 0.016. CTGATCATTC gave a switch fluorescence ratio of 1.04 ± 0.045. GATCCCAGAG was tested, and the switch fluorescence ratio was 1.16 ± 0.082. AGGCGAAGCA gave a switch fluorescence ratio of 0.9923 ± 0.0092. TCACAATGCT gave a switch fluorescence ratio of 1.55 ± 0.016. GAGAAATGTG showed a switch fluorescence ratio of 1.03 ± 0.011. With GCAAGGAGGG the switch fluorescence ratio was 1.05 ± 0.14. AGTACTGTGG was tested, and the switch fluorescence ratio was 0.996 ± 0.032. AGAACCTCTT showed a switch fluorescence ratio of 1.06 ± 0.033. Work on TGGGTTCAGG yielded a switch fluorescence ratio of 1 ± 0.015. TTCCGGGGGT was tested, and the switch fluorescence ratio was 1 ± 0.015. CGTTGTCGTT showed a switch fluorescence ratio of 1.01 ± 0.055. TTCCGGGCTG gave a switch fluorescence ratio of 1 ± 0.02. CGGTAAATGG gave a switch fluorescence ratio of 1.02 ± 0.04. AGAGACCAGC showed a switch fluorescence ratio of 1.07 ± 0.028. For TTTTCTCGCT, the switch fluorescence ratio was 0.967 ± 0.02. For ACTGGGTGAG, the switch fluorescence ratio was 1.02 ± 0.023. With GTTTGTTGGC the switch fluorescence ratio was 0.967 ± 0.056. TTTCGTCGGC gave a switch fluorescence ratio of 1.048 ± 0.0018. TACTGGACTT showed a switch fluorescence ratio of 1.14 ± 0.033. CGTTGATTAG was tested, and the switch fluorescence ratio was 0.984 ± 0.014. GACCTTTTTC was tested, and the switch fluorescence ratio was 1.03 ± 0.068. Sequence CATTGAGTCG has a switch fluorescence ratio of 0.98 ± 0.052. GTTCGTCCTC showed a switch fluorescence ratio of 1.03 ± 0.031. Work on GGGGACCATT yielded a switch fluorescence ratio of 1.01 ± 0.035. TGAATGAGAT was tested, and the switch fluorescence ratio was 0.967 ± 0.014. AGTCTGGGGA gave a switch fluorescence ratio of 0.99 ± 0.015. Sequence CCGTTGGGGT has a switch fluorescence ratio of 1.11 ± 0.13. CAATTGCATC gave a switch fluorescence ratio of 1.02 ± 0.014. Work on TCTGTATGTA yielded a switch fluorescence ratio of 1.01 ± 0.026. For GGAATTTAGG, the switch fluorescence ratio was 1 ± 0.015. TATCATTGGG gave a switch fluorescence ratio of 0.968 ± 0.029. With AGGGCAATGT the switch fluorescence ratio was 1.11 ± 0.032. Sequence CACGGTTTGT has a switch fluorescence ratio of 0.985 ± 0.018. In the case of GTAGAGAGTG, the switch fluorescence ratio is reported as 1 ± 0.02. For TGACCGAAAC, the switch fluorescence ratio was 1.2 ± 0.051. ACAGGACTTA gave a switch fluorescence ratio of 1.09 ± 0.021. GATTGTAATA was tested, and the switch fluorescence ratio was 1.01 ± 0.034. In the case of CCTTTCGGGT, the switch fluorescence ratio is reported as 0.982 ± 0.039. Sequence ATGTTGGGGA has a switch fluorescence ratio of 0.996 ± 0.019. For AGGTTAAAA, the switch fluorescence ratio was 1.03 ± 0.075. Work on TTCGAGGGGG yielded a switch fluorescence ratio of 1.01 ± 0.031. Work on ACGTATTCAT yielded a switch fluorescence ratio of 1.11 ± 0.013. AATTTGTAGG showed a switch fluorescence ratio of 1 ± 0.02. In the case of AAGGGGAATT, the switch fluorescence ratio is reported as 1.01 ± 0.049. In the case of TCCAGAGCGG, the switch fluorescence ratio is reported as 1.34 ± 0.47. For TCCACAGTGG, the switch fluorescence ratio was 1.35 ± 0.41. AAGTTTGGTG showed a switch fluorescence ratio of 0.986 ± 0.042. For TGGTAGGGGC, the switch fluorescence ratio was 1.02 ± 0.057. In the case of GGATTAAAAT, the switch fluorescence ratio is reported as 0.997 ± 0.028. With GGTGGGAGCA the switch fluorescence ratio was 1.04 ± 0.034. Work on GCGGGGAACA yielded a switch fluorescence ratio of 1 ± 0.017. For TATTGAAAAA, the switch fluorescence ratio was 1.06 ± 0.048. CGGTGCGATT showed a switch fluorescence ratio of 1.03 ± 0.019. In the case of CTAATAGTTA, the switch fluorescence ratio is reported as 0.972 ± 0.0099. With CATGTTAGTC the switch fluorescence ratio was 1.01 ± 0.012. Sequence CCTGCCCTGT has a switch fluorescence ratio of 1.108 ± 0.0022. GACAGGGATT gave a switch fluorescence ratio of 1.1 ± 0.15. Sequence TGTTCTAAAG has a switch fluorescence ratio of 0.997 ± 0.025. With GCTGGGGTTG the switch fluorescence ratio was 0.9839 ± 0.003. In the case of ACGGGCATTC, the switch fluorescence ratio is reported as 1.76 ± 0.42. With ATTTAAGTGT the switch fluorescence ratio was 1 ± 0.021. TTTGGTTGCC gave a switch fluorescence ratio of 1.05 ± 0.085. GACTTTGGGA gave a switch fluorescence ratio of 0.999 ± 0.023. With ACAAGACTTA the switch fluorescence ratio was 1.04 ± 0.018. Sequence TTCGCAACAG has a switch fluorescence ratio of 2.19 ± 0.67. In the case of GTTAGGGTTG, the switch fluorescence ratio is reported as 1.02 ± 0.045. Work on GGCCGATGCA yielded a switch fluorescence ratio of 1.02 ± 0.021. TGAATCATGG gave a switch fluorescence ratio of 0.972 ± 0.022. For TAGAACGTCG, the switch fluorescence ratio was 0.98 ± 0.031. Sequence TGGGGTATAC has a switch fluorescence ratio of 1.02 ± 0.038. In the case of TTAAAAGGAG, the switch fluorescence ratio is reported as 1.01 ± 0.044. TTATAATTTT showed a switch fluorescence ratio of 0.965 ± 0.044. Sequence CATGATTGCG has a switch fluorescence ratio of 0.985 ± 0.024. TATTAGATTT showed a switch fluorescence ratio of 0.996 ± 0.014. In the case of TACGTTACTC, the switch fluorescence ratio is reported as 1.56 ± 0.018. CGCATTCTGC was tested, and the switch fluorescence ratio was 1.17 ± 0.091. For GCCTACTGTT, the switch fluorescence ratio was 0.9855 ± 0.0094. In the case of TAAAGGTCGG, the switch fluorescence ratio is reported as 0.967 ± 0.028. For GCTAGAAAGA, the switch fluorescence ratio was 0.972 ± 0.0073. TGCGTACTAT gave a switch fluorescence ratio of 1.06 ± 0.1. TTTCGTTTTG showed a switch fluorescence ratio of 0.998 ± 0.016. In the case of TACACGCGGG, the switch fluorescence ratio is reported as 1.01 ± 0.048. With TAGGTTTAGG the switch fluorescence ratio was 0.987 ± 0.013. For GCTGGGTTTC, the switch fluorescence ratio was 0.996 ± 0.02. In the case of TAAGTGGGGG, the switch fluorescence ratio is reported as 0.979 ± 0.03. Work on GCGTTTAGTA yielded a switch fluorescence ratio of 0.992 ± 0.03. In the case of CGGGGAGGGA, the switch fluorescence ratio is reported as 1.03 ± 0.019. GCGTCAATTG was tested, and the switch fluorescence ratio was 1.02 ± 0.035. TAGAAGCCGG was tested, and the switch fluorescence ratio was 0.98897 ± 0.00029. CGGAAATAT showed a switch fluorescence ratio of 1.023 ± 0.0046. With TTTAAGCCCC the switch fluorescence ratio was 0.9854 ± 0.0082. TTGTTTCAAG was tested, and the switch fluorescence ratio was 1.01 ± 0.029. Sequence GCGGGGGTGC has a switch fluorescence ratio of 1.03 ± 0.048. CCAATGGTGG was tested, and the switch fluorescence ratio was 1.01 ± 0.043. With GGCTGGGTAC the switch fluorescence ratio was 1.12 ± 0.24. Sequence TGGTTTATGG has a switch fluorescence ratio of 1.01 ± 0.02. Sequence CCATCGGTGG has a switch fluorescence ratio of 1 ± 0.047. In the case of GTCCATTGGG, the switch fluorescence ratio is reported as 1 ± 0.021. In the case of AACTTCTGCC, the switch fluorescence ratio is reported as 1.025 ± 0.0013. Sequence ACTTGTTTGG has a switch fluorescence ratio of 1.01 ± 0.023. CACGGGATGG gave a switch fluorescence ratio of 1.05 ± 0.026. For GGGGGTTCCG, the switch fluorescence ratio was 0.98 ± 0.021. GAACTAAATG gave a switch fluorescence ratio of 1 ± 0.055. In the case of AAGGATGTTG, the switch fluorescence ratio is reported as 0.9998 ± 0.0017. Work on CGTATTAGGT yielded a switch fluorescence ratio of 0.9553 ± 0.0086. Work on GGAAGGGGTT yielded a switch fluorescence ratio of 1.03 ± 0.089. Work on AATGCAGTGC yielded a switch fluorescence ratio of 1.26 ± 0.09. For GATTGAGAGT, the switch fluorescence ratio was 1.019 ± 0.0087. Work on ATACTGTGTT yielded a switch fluorescence ratio of 1.014 ± 0.0084. TAAAATGTTG showed a switch fluorescence ratio of 1.03 ± 0.033. Work on TAGGACGTGC yielded a switch fluorescence ratio of 0.9627 ± 0.0032. In the case of CGGTGCTACT, the switch fluorescence ratio is reported as 1.03 ± 0.063. For GGCGGGGGAA, the switch fluorescence ratio was 1.01 ± 0.059. Work on CATTTGAGGT yielded a switch fluorescence ratio of 1 ± 0.027. TGAGGGGATA was tested, and the switch fluorescence ratio was 1.01 ± 0.025. Work on TATGGGTCGG yielded a switch fluorescence ratio of 1 ± 0.043. TAACAATTTC showed a switch fluorescence ratio of 1.01 ± 0.02. In the case of GGAGCGGCGG, the switch fluorescence ratio is reported as 1.02 ± 0.069. CAATGCGACA showed a switch fluorescence ratio of 1.39 ± 0.078. TTGTGTATCA showed a switch fluorescence ratio of 0.993 ± 0.035. TTTTTGTAGG was tested, and the switch fluorescence ratio was 0.995 ± 0.016. In the case of TTCAGGGGAG, the switch fluorescence ratio is reported as 0.975 ± 0.04. Sequence AATCGTGGTG has a switch fluorescence ratio of 0.982 ± 0.047. For CTCGGCTTGA, the switch fluorescence ratio was 1.06 ± 0.018. In the case of CGCTATAAGG, the switch fluorescence ratio is reported as 1.03 ± 0.017. In the case of AGGTGTTTTT, the switch fluorescence ratio is reported as 1.03 ± 0.032. TTTTTTTGC gave a switch fluorescence ratio of 1 ± 0.02. Work on TTAGGTTTAT yielded a switch fluorescence ratio of 0.986 ± 0.013. Work on TGGACGAAGT yielded a switch fluorescence ratio of 1.01 ± 0.023. Work on GGGGAGAGAA yielded a switch fluorescence ratio of 0.9855 ± 0.0071. AACGGGGAAC showed a switch fluorescence ratio of 0.986 ± 0.014. Work on TATCGTGATG yielded a switch fluorescence ratio of 0.992 ± 0.039. GGTGGGGAAA showed a switch fluorescence ratio of 1.0255 ± 0.00086. TTTGGGTCTG was tested, and the switch fluorescence ratio was 0.992 ± 0.026. Work on GTGTTTAAGA yielded a switch fluorescence ratio of 1.01 ± 0.026. Work on AAGTTTTGTT yielded a switch fluorescence ratio of 0.987 ± 0.023. GGAAGGGCGA gave a switch fluorescence ratio of 0.9569 ± 0.0068. With TGTTCCGGGG the switch fluorescence ratio was 1.013 ± 0.0063. TTGGTCGGTC gave a switch fluorescence ratio of 0.985 ± 0.036. Work on CTGTTCATTG yielded a switch fluorescence ratio of 0.9807 ± 0.0037. With GGTGGGTTGT the switch fluorescence ratio was 1.03 ± 0.076. Sequence GGAAAAAGGT has a switch fluorescence ratio of 1.05 ± 0.14. For TTACTGGGTT, the switch fluorescence ratio was 1 ± 0.084. ACGTCGCATG was tested, and the switch fluorescence ratio was 1.09 ± 0.046. Sequence AAGGTTCCTG has a switch fluorescence ratio of 0.98 ± 0.03. For GGCATGTGGT, the switch fluorescence ratio was 1.0254 ± 0.001. TCAAGGGGTG was tested, and the switch fluorescence ratio was 1.034 ± 0.0082. For AGGGAGTCTT, the switch fluorescence ratio was 0.971 ± 0.052. With CTGACATGAT the switch fluorescence ratio was 1.07 ± 0.04. For TACAAGTCAA, the switch fluorescence ratio was 1.02 ± 0.017.
